Patent publication US20090023672, “AGE-2 APTAMER” (KURUME UNIVERSITY, published 2009)

B1: AGE-2 aptamer 2 (ssDNA)
DNA: ACCACTGCACGACCCCCACCAGTCCCACTCGCAGCGTCCATGGCCCCCACGCCCCA
B2: AGE-2 aptamer 5 (ssDNA)
DNA: CAAGCGCTCCATCCACCGACATACCTACCAAACACTCTCCTTGCCCATAAAACCAC
B3: AGE-2 aptamer 10 (ssDNA)
DNA: ATAACCCCGACGTACACGCCAACTATGCCCACAACCCGCCATAACCCACCACCTTC
B4: AGE-2 aptamer 9 (ssDNA)
DNA: TAACTCACTCCATACTCACTTGCTGATTCGCCAACAACACACCCTTAAACAGTCCC
B5: AGE-2 aptamer 14 (ssDNA)
DNA: CTGAATACCAACGTACCCCCTCCCAAGTCCCCCTACCCACGCTAAACTCAACCTCA
B6: AGE-2 aptamer 6 (ssDNA)
DNA: CCCGCCATTCCCCTACATAACACCTACCCATCTCCCTTCCCAGTTAATCACCGC
B7: AGE-2 aptamer 8 (ssDNA)
DNA: AACTAGCCCGAGCCACAATCCCATAACAAGCGTGACCACACTATCCTGTCTTCCC
B8: AGE-2 aptamer 15 (ssDNA)
DNA: TACAGCCCCCCAACCCACCACCGCCGTAGATAACCACCCACCAACGATATCCCACT
B9: AGE-2 aptamer 7 (ssDNA)
DNA: CCACACTGCACTAAACCAGCGTCCCGGACCATCACAACCTCTGCCCACTAGCCCCT
B10: AGE-2 aptamer 11 (ssDNA)
DNA: CCCAAGCACAATAGCCACACCCACGACCCACCCTCATATTCCGACCACGCTCCC
B11: AGE-2 aptamer 13 (ssDNA)
DNA: CCTCAACACACCTCTAACCAACCCTCAGCCCAGCACAACACCCCCCAAACCGACAC
B12: AGE-2 aptamer 4 (ssDNA)
DNA: CCAGCCTCGATACCATACCCACCAACCCAACCAGACTCCACACACCCACGCGTCTC
B13: AGE-2 aptamer 3 (ssDNA)
DNA: CGCCCCCACACCACCGCCACGACCCCACAATCCCCCGAGGTCCCCCGCGTCCACAC

biological target: AGE-2 (glyceraldehyde-derived advanced glycation end product of human serum albumin) (Homo sapiens, UniProt P02768 P02768:25-609, HSA glycated with D-glyceraldehyde at 37 C for 7 days, dialysed against PBS); experiment: AGE-2 fluorescence attenuation, 100 ug/mL AGE-2, 25 nM aptamer; details: tags: HSA from Sigma; immobilised on SulfoLink beads for SELEX
Procedure: First, for measuring fluorescence properties of AGE-2, wavelengths of AGE-2 were determined for excitation and […] using a spectrofluorometer (FP-777: JASCO Corporation). […] Subsequently, the fluorescence intensity was measured with 25 to 100 μg/mL of AGE-2 at the excitation wavelength of 380 nm, and a calibration curve was prepared (FIG. 3A).
Then, to each aptamer (SEQ ID NOs: 1 to 15), 100 μg/mL of the AGE-2 was added at a final concentration of 25 to 100 nM, and the fluorescence intensity was measured (see FIGS. 3B and C). Based on attenuation in the fluorescence intensity of AGE-2 when the aptamer was added at 25 nM, the weight (ng) of the bound AGE-2 was calculated per mole (nmol) of the aptamer.

Sequence of AGE-2 (glyceraldehyde-derived advanced glycation end product of human serum albumin) (P02768 25-609, stated change not applied, one chain of several): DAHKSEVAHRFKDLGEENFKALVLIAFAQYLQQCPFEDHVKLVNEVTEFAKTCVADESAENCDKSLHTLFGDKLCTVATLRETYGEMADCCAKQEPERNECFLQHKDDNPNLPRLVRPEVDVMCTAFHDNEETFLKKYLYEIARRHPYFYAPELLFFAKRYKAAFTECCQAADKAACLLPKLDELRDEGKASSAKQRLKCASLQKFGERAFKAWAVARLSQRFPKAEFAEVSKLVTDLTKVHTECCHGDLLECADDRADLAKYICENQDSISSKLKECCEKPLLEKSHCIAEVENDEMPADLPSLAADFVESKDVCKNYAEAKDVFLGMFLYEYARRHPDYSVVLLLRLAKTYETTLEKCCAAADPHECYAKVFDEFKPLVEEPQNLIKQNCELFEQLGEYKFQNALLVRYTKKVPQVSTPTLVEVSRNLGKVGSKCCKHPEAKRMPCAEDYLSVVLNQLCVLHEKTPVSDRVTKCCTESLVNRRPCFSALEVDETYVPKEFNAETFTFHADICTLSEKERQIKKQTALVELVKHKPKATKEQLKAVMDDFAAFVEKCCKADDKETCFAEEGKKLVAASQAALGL

Q: How did the binding signal turn out when B1 was run?
A: 175 ng AGE-2 bound per nmol aptamer

Q: How did the binding signal turn out when B2 was run?
A: 143 ng AGE-2 bound per nmol aptamer

Q: How did the binding signal turn out when B3 was run?
A: 134 ng AGE-2 bound per nmol aptamer

Q: For B4, which binding signal is on record?
A: 117 ng AGE-2 bound per nmol aptamer

Q: Which binding signal does the source give for B5 here?
A: 158 ng AGE-2 bound per nmol aptamer

Q: How did the binding signal turn out when B6 was run?
A: 202 ng AGE-2 bound per nmol aptamer

Q: For B7, which binding signal is on record?
A: 175 ng AGE-2 bound per nmol aptamer

Q: Which binding signal does the source give for B8 here?
A: 271 ng AGE-2 bound per nmol aptamer

Q: With B9 as the binder, how does the binding signal read?
A: 146 ng AGE-2 bound per nmol aptamer

Q: Which binding signal does the source give for B10 here?
A: 137 ng AGE-2 bound per nmol aptamer

Q: For B11, which binding signal is on record?
A: 175 ng AGE-2 bound per nmol aptamer

Q: B12 was tested. Which binding signal did it give?
A: 210 ng AGE-2 bound per nmol aptamer

Q: With B13 as the binder, how does the binding signal read?
A: 260 ng AGE-2 bound per nmol aptamer
